Laboratory results from the supplement of paper PMC12764529.
± gives the half width of the 95% confidence interval.

Tests used:
[1] = folding stability dG unfold from chymotrypsin proteolysis; higher = more stable
Procedure, shortened: (§1)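 K50 was inferred by Bayesian fitting of sequencing counts obtained after protease digestion of designed mini-proteins. Unfolding free energy was derived by comparison with a sequence-predicted unfolded-state K50 and a shared folded-state K50, for each protease or both combined. The mini-proteins were under 80 residues, had no cysteine, were carried in a PA-tagged cDNA display construct, and were kept only if AlphaFold2 dimer inter-PAE exceeded 15.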

[2] = folding stability dG unfold (combined trypsin and chymotrypsin); higher = more stable
Procedure, shortened: as §1

[3] = folding stability dG unfold from trypsin proteolysis; higher = more stable
Procedure, shortened: as §1

## SAGKVIVIDAEEMTEEELKEILKKTKPGEKILIIAKSKEVAEKLKELGFEVEEVEKVPLTEEELKKLKKSAG [r5_354_TrROS_Hall]
[1]
  folding stability dG unfold: 1.27 ± 0.028 kcal/mol
[2]
  folding stability dG unfold: 1.08 ± 0.14 kcal/mol
[3]
  folding stability dG unfold: 0.835 ± 0.063 kcal/mol

## SAGGSAGGSAGGSLAFEGSFRFRKLKLTFKRKLTRTRPDGEPEEFEEELELEVEVVLPVSAGGSAGGSAGGS [r4_418_TrMRF]
[1]
  folding stability dG unfold: 4.84 ± 0.15 kcal/mol
[2]
  folding stability dG unfold: 4.21 ± 0.4 kcal/mol
[3]
  folding stability dG unfold: 3.77 ± 0.09 kcal/mol

## SAGGSAGGSAGGLPDREILEVRVLNPEREETGLRVRVEVVLPDGPVTIELPAEEVKELASAGGSAGGSAGGS [r10_771_TrMRF]
[1]
  folding stability dG unfold: 1.03 ± 0.024 kcal/mol
[2]
  folding stability dG unfold: 0.726 ± 0.071 kcal/mol
[3]
  folding stability dG unfold: -0.0431 ± 0.068 kcal/mol

## SAGGSMSESEVVEVTVGGKPVTITVHREDNRYSAEVTLPPGVRVVLPFGGPESPEKAVEEAVRALESAGGSA [r2_92_JUSTAS]
[1]
  folding stability dG unfold: 0.508 ± 0.046 kcal/mol
[2]
  folding stability dG unfold: 0.425 ± 0.065 kcal/mol
[3]
  folding stability dG unfold: 0.352 ± 0.036 kcal/mol

## SAGGSARRPFNVEAWYPPGRSADNVADELASHFFGIKIDDVEVEPNPDNGYYKIEATIRIPPDWLKSAGGSA [r15_930_TrROS]
[1]
  folding stability dG unfold: 0.528 ± 0.29 kcal/mol
[2]
  folding stability dG unfold: 0.33 ± 0.18 kcal/mol
[3]
  folding stability dG unfold: 0.0136 ± 0.36 kcal/mol

## SAGGSAGGMTKTEVTVTVEKVPDGTYVVKTTKTTTTTNPDGTLTSSTTTTTKTVTPEELAAVLASAGGSAGG [r6_974_JUSTAS]
[1]
  folding stability dG unfold: 2.86 ± 0.044 kcal/mol
[2]
  folding stability dG unfold: 3.16 ± 0.11 kcal/mol
[3]
  folding stability dG unfold: 3.7 ± 0.15 kcal/mol

## SAGGSAGGSAGKLRYRYRFDTVLLEVTYDPSTGEVVEVKVIPLSPLPPLTPEELYRLLEDSAGGSAGGSAGG [r11_320_TrMRF]
[1]
  folding stability dG unfold: 3.071 ± 0.018 kcal/mol
[2]
  folding stability dG unfold: 2.82 ± 0.056 kcal/mol
[3]
  folding stability dG unfold: 2.25 ± 0.053 kcal/mol

## SAGGSAGGSAGGMAASVSPSVSYDPNTPVTNTKYTITTDGGVTPTTVVTPVVTPPPSPALSAGGSAGGSAGG [r7_413_JUSTAS]
[1]
  folding stability dG unfold: 0.149 ± 0.11 kcal/mol
[2]
  folding stability dG unfold: 0.198 ± 0.17 kcal/mol
[3]
  folding stability dG unfold: -0.148 ± 0.16 kcal/mol

## SAGMEVEILGAEVDPETGVVKVVAVGRDPVTGVLVVDEITIKGDTVEIRREVYFPNTGKKAETTATIPLSAG [r5_150_TrMRF]
[1]
  folding stability dG unfold: 1.43 ± 0.071 kcal/mol
[2]
  folding stability dG unfold: 1.55 ± 0.12 kcal/mol
[3]
  folding stability dG unfold: 1.66 ± 0.13 kcal/mol

## SAGGSAGGSIWIPPNHSVEEFAKEIQDKGNAEVKRDEPGWYKIKSKNNKPKKRIRFQANPEQFSAGGSAGGS [r20_236_TrROS]
[1]
  folding stability dG unfold: 0.24 ± 0.53 kcal/mol
[2]
  folding stability dG unfold: -0.046 ± 0.43 kcal/mol
[3]
  folding stability dG unfold: -0.163 ± 0.5 kcal/mol

## SMPTLKITIEKKLPNGEKKKIEIEISLEELLKEARKKKGLESEEEAREALAKELAEKLKEEGYKVKIEPVSA [r9_868_TrROS_Hall]
[1]
  folding stability dG unfold: 0.209 ± 0.42 kcal/mol
[2]
  folding stability dG unfold: 0.525 ± 0.32 kcal/mol
[3]
  folding stability dG unfold: 0.855 ± 0.17 kcal/mol

## SAGGSARVIRNPDYGMWIRLQPTDGGYTVQIEMYRPDPEDGKPKRRPMTHTIPPDDLPPEIRDLLKSAGGSA [r15_703_TrROS]
[1]
  folding stability dG unfold: 0.515 ± 0.12 kcal/mol
[2]
  folding stability dG unfold: 0.573 ± 0.07 kcal/mol
[3]
  folding stability dG unfold: 0.442 ± 0.1 kcal/mol

## SAGGSAGGSAKIMIPVDTPEEVKDIAEEFASNGNKEVEPHEDGWVSIEFPNGVPIEIWLPKDSAGGSAGGSA [r18_126_TrROS]
[1]
  folding stability dG unfold: 0.488 ± 0.062 kcal/mol
[2]
  folding stability dG unfold: 0.0345 ± 0.25 kcal/mol
[3]
  folding stability dG unfold: -0.558 ± 0.28 kcal/mol

## SAGGLEIEVFNEKGEPVEVRLRRKEDDTLELEVRFRDASGREYRARATVRVKETEIELGEVDEWEELESAGG [r13_451_TrMRF]
[1]
  folding stability dG unfold: 1.84 ± 0.082 kcal/mol
[2]
  folding stability dG unfold: 2.21 ± 0.26 kcal/mol
[3]
  folding stability dG unfold: 2.19 ± 0.09 kcal/mol

## SAGGKPKEIVIEVELEVVEVNGEKYLVLKAKIIDKETNEVYEVTAVFNLKTGKLVGIEVKKLTVEELKSAGG [r13_772_TrROS_Hall]
[1]
  folding stability dG unfold: 4.9 ± 0.23 kcal/mol
[2]
  folding stability dG unfold: 4.66 ± 0.37 kcal/mol
[3]
  folding stability dG unfold: 3.16 ± 0.25 kcal/mol

## SAGGSADTITIFFPGMPPEFAKEILEAILYEQGWKPKSVSTERHPEKGMHTIEVRFPNGRKITIMFSAGGSA [r15_958_TrROS]
[1]
  folding stability dG unfold: 3.1 ± 0.016 kcal/mol
[2]
  folding stability dG unfold: 2.75 ± 0.052 kcal/mol
[3]
  folding stability dG unfold: 2.18 ± 0.06 kcal/mol

## SAGMNLKIEVSVTPQEFELVEKDEEGNLIKPVKQKATVVTTTTTLPDGTVTTTRSLFLDGELVATSTGSAGG [r19_44_JUSTAS]
[1]
  folding stability dG unfold: 1.03 ± 0.044 kcal/mol
[2]
  folding stability dG unfold: 0.972 ± 0.098 kcal/mol
[3]
  folding stability dG unfold: 0.716 ± 0.015 kcal/mol

## SAGGSAGGSAGAFVGYRDEGGRYWLRTPEGELELDSEEDALEWADFLRANGIPLLSEPRPSAGGSAGGSAGG [r17_35_TrMRF]
[1]
  folding stability dG unfold: 1.59 ± 0.11 kcal/mol
[2]
  folding stability dG unfold: 1.43 ± 0.073 kcal/mol
[3]
  folding stability dG unfold: 1.08 ± 0.032 kcal/mol

## SAGGSALYIPPGTEHTVLIKLKDDDRYYEAKVTRVYPTSIEVEVEDPLTGEKKRYTINATDIELGDSAGGSA [r15_381_TrMRF]
[1]
  folding stability dG unfold: 2.24 ± 0.07 kcal/mol
[2]
  folding stability dG unfold: 2.18 ± 0.18 kcal/mol
[3]
  folding stability dG unfold: 2.14 ± 0.12 kcal/mol

## SAGGMPEPRPIPLTLTLLVDPEDPESVEEKLREFFEAFGADEITRVERELLPDGRALVTAEVLVNEPVSAGG [r13_222_TrMRF]
[1]
  folding stability dG unfold: 1.17 ± 0.043 kcal/mol
[2]
  folding stability dG unfold: 1.15 ± 0.061 kcal/mol
[3]
  folding stability dG unfold: 1.03 ± 0.03 kcal/mol

## SAGGGTRTINFDSPEDAEDAIEDWPDWDKVTISVPSNGEPQSIPLKIKPPPPPKYKRDENGKPEPEPDSAGG [r13_183_TrROS]
[1]
  folding stability dG unfold: 2.95 ± 0.19 kcal/mol
[2]
  folding stability dG unfold: 2.65 ± 0.25 kcal/mol
[3]
  folding stability dG unfold: 2.08 ± 0.14 kcal/mol

## SAGPVVLSPDDTVKIGKKELTFFSDGTVSVKYPDGTGESITVTVDPSSGNITLTETFTEPETGTTPVENSAG [r5_33_JUSTAS]
[1]
  folding stability dG unfold: 1.48 ± 0.075 kcal/mol
[2]
  folding stability dG unfold: 1.17 ± 0.16 kcal/mol
[3]
  folding stability dG unfold: 0.473 ± 0.15 kcal/mol

## SMVEIKVEPEKSIIKATLTLKDKTVEEIKQLAKEYFEKLGYKIKVEVKEVKTFEDSVTLKFEIKVPKGLVSA [r9_347_JUSTAS]
[1]
  folding stability dG unfold: 2.27 ± 0.11 kcal/mol
[2]
  folding stability dG unfold: 2.45 ± 0.26 kcal/mol
[3]
  folding stability dG unfold: 1.94 ± 0.1 kcal/mol

## SAGGSPSTVVPTLLTLEIVKKDEKGNETSETIPVLVEDSPEEARERLIEEIEKKYGAEVVKVTVKPESAGGS [r16_511_JUSTAS]
[1]
  folding stability dG unfold: -1.22 ± 0.27 kcal/mol
[2]
  folding stability dG unfold: -0.608 ± 0.18 kcal/mol
[3]
  folding stability dG unfold: -0.576 ± 0.07 kcal/mol

## SAGGKWKPIGKFEFTLPDGVKVTVTVEENPPLELKITAEVEIYVPPPKPPVPPLGPEEVKKWLEENKSAGGS [r16_6_TrMRF]
[1]
  folding stability dG unfold: 1.86 ± 0.05 kcal/mol
[2]
  folding stability dG unfold: 1.8 ± 0.2 kcal/mol
[3]
  folding stability dG unfold: 1.87 ± 0.12 kcal/mol

## SAMTIVLTLDEIAELLGLEKGESVEELRERIRELIRRLEEEGYRVTSITIEEVDGELVITVEIEPPPPESAG [r14_158_TrROS_Hall]
[1]
  folding stability dG unfold: 5.23 ± 0.21 kcal/mol
[2]
  folding stability dG unfold: 4.89 ± 0.21 kcal/mol
[3]
  folding stability dG unfold: 3.38 ± 0.2 kcal/mol

## SAGGSAGGSGEELRNLLANVKKVTVFPNADGGLGVLIELEPEEPEERTIVLNYDQLAELLALGSAGGSAGGS [r12_466_TrMRF]
[1]
  folding stability dG unfold: 0.813 ± 0.11 kcal/mol
[2]
  folding stability dG unfold: 0.936 ± 0.15 kcal/mol
[3]
  folding stability dG unfold: 0.916 ± 0.026 kcal/mol

## SAGGSAGGFFHIEIEWRPVKLEDLPEEDAANGKELKPGDEIWVIVKIEIYPMPPPKFDKDGELNSAGGSAGG [r6_547_TrROS]
[1]
  folding stability dG unfold: 3.31 ± 0.23 kcal/mol
[2]
  folding stability dG unfold: 2.77 ± 0.2 kcal/mol
[3]
  folding stability dG unfold: 2.23 ± 0.19 kcal/mol

## SAMKKPPKTLTLVIVVKVPEEEMTEEQLEELARELAEALAPPGEKVEVKVEVERLPDGTVVVKIEIKLESAG [r14_389_TrROS_Hall]
[1]
  folding stability dG unfold: 1.98 ± 0.067 kcal/mol
[2]
  folding stability dG unfold: 2.22 ± 0.17 kcal/mol
[3]
  folding stability dG unfold: 2.28 ± 0.091 kcal/mol

## SAGGSAGGSMFKVIVESEDPEKALEEAKALIEKIEEEGIGEIKKFEFLIVPKDIPEYKKLKEKSAGGSAGGS [r12_551_TrMRF]
[1]
  folding stability dG unfold: 0.438 ± 0.18 kcal/mol
[2]
  folding stability dG unfold: -0.0656 ± 0.3 kcal/mol
[3]
  folding stability dG unfold: -0.306 ± 0.45 kcal/mol

## SAGGSAGGSAGGMEIREVEVTFVPPDGTTTTRKVLATSEEEAKAILEEELPPDWEIILRSAGGSAGGSAGGS [r10_145_JUSTAS]
[1]
  folding stability dG unfold: 0.831 ± 0.034 kcal/mol
[2]
  folding stability dG unfold: 0.55 ± 0.082 kcal/mol
[3]
  folding stability dG unfold: -0.122 ± 0.11 kcal/mol
